Patent US20170128544A1

Target: Bb, the active site-bearing fragment of Factor B (human) (UniProt P00751)
Assay: surface plasmon resonance, decay-dissociation of the convertase

Chain of Bb, the active site-bearing fragment of Factor B (human) (P00751 260-764 limits assumed): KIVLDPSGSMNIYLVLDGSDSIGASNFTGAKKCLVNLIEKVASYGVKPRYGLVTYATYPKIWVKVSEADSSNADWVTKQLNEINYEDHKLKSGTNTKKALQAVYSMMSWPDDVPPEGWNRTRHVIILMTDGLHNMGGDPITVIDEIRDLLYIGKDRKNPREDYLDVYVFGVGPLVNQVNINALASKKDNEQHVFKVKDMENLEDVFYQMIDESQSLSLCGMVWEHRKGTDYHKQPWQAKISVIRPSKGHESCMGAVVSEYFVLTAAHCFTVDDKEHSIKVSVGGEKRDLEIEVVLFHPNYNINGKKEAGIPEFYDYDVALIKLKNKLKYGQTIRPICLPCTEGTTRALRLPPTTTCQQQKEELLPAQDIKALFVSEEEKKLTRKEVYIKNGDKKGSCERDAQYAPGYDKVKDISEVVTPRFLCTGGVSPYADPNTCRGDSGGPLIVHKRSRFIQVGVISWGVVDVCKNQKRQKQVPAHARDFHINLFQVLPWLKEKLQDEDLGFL

cobra venom factor (CVF), natural (from UniProt Q91132 23-649; Q91132 733-984; Q91132 1264-1642)
Half-life at 25° C. (hrs) of the spontaneous decay-dissociation: 19.2 h

humanized cobra venom factor (hCVF) protein HC3-1550b (from UniProt P01024 23-1549; Q91132 1529-1642)
Half-life at 25° C. (hrs) of the spontaneous decay-dissociation: 2 h
